In article PMC10354202 (2023) one finds Kd data, which are given here for 1 molecule.

Common to all, as to assay: magnetic tweezers
Assay [1] concerns the target T1, talin VBS (UniProt Q9Y490, talin stretched at low force (up to ~9-10 pN)).
T1 chain: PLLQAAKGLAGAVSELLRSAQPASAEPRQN

The target in assay [2] is T2, talin VBS (UniProt Q9Y490, talin stretched above ~10 pN).
T2 chain: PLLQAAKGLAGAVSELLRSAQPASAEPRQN

Assay [3] addresses T3, talin VBS (UniProt Q9Y490, talin stretched at low force, matured complex).
T3 chain: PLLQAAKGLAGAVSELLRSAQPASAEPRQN

B1: vinculin (protein)
chain: MPVFHTRTIESILEPVAQQISHLVIMHEEGEVDGKAIPDLTAPVAAVQAAVSNLVRVGKETVQTTEDQILKRDMPPAFIKVENACTKLVQAAQMLQSDPYSVPARDYLIDGSRGILSGTSDLLLTFDEAEVRKIIRVCKGILEYLTVAEVVETMEDLVTYTKNLGPGMTKMAKMIDERQQELTHQEHRVMLVNSMNTVKELLPVLISAMKIFVTTKNSKNQGIEEALKNRNFTVEKMSAEINEIIRVLQLTSWDEDAWASKDTEAMKRALASIDSKLNQAKGWLRDPSASPGDAGEQAIRQILDEAGKVGELCAGKERREILGTCKMLGQMTDQVADLRARGQGSSPVAMQKAQQVSQGLDVLTAKVENAARKLEAMTNSKQSIAKKIDAAQNWLADPNGGPEGEEQIRGALAEARKIAELCDDPKERDDILRSLGEISALTSKLADLRRQGKGDSPEARALAKQVATALQNLQTKTNRAVANSRPAKAAVHLEGKIEQAQRWIDNPTVDDRGVGQAAIRGLVAEGHRLANVMMGPYRQDLLAKCDRVDQLTAQLADLAARGEGESPQARALASQLQDSLKDLKARMQEAMTQEVSDVFSDTTTPIKLLAVAATAPPDAPNREEVFDERAANFENHSGKLGATAEKAAAVGTANKSTVEGIQASVKTARELTPQVVSAARILLRNPGNQAAYEHFETMKNQWIDNVEKMTGLVDEAIDTKSLLDASEEAIKKDLDKCKVAMANIQPQMLVAGATSIARRANRILLVAKREVENSEDPKFREAVKAASDELSKTISPMVMDAKAVAGNISDPGLQKSFLDSGYRILGAVAKVREAFQPQEPDFPPPPPDLEQLRLTDELAPPKPPLPEGEVPPPRPPPPEEKDEEFPEQKAGEVINQPMMMAARQLHDEARKWSSKPGIPAAEVGIGVVAEADAADAAGFPVPPDMEDDYEPELLLMPSNQPVNQPILAAAQSLHREATKWSSKGNDIIAAAKRMALLMAEMSRLVRGGSGTKRALIQCAKDIAKASDEVTRLAKEVAKQCTDKRIRTNLLQVCERIPTISTQLKILSTVKATMLGRTNISDEESEQATEMLVHNAQNLMQSVKETVREAEAASIKIRTDAGFTLRWVRKTPWYQ
For orientation: Kd means the concentration at which binding is half-saturated. Turning to B1, the Kd in the assay with talin VBS [1] was around 0.2 nM; with talin VBS [2], around 5 nM; with talin VBS [3], around 0.004 nM.
